Data taken from PMC9190012, “Heparin activation of protein Z-dependent protease inhibitor (ZPI) allosterically blocks protein Z activation through an extended heparin-binding site” (The Journal of Biological Chemistry, 2022).
Where a chain is given by its changes, count along the chain named. In names and notes the source's numbering stands. Each block holds one molecule with its values, some of them ahead of it.

What was measured:
Type in all cases: biochemical
FXa [1] = molecular target: T1, FXa (Homo sapiens, UniProt P00742); assay: Unaccelerated ZPI–FXa reactions: kinetics and stoichiometry of inhibition; details: for ka,app: absence of PZ, 2.5 mM CaCl2, pH 7.4, 25 °C
T1 construct: purchased Enzyme Research Laboratories
Description: (§1) Apparent second-order rate constants for unaccelerated and H50-accelerated ZPI–FXa reactions were measured in the absence and presence of the optimal H50 concentration under pseudo–first-order conditions by analyzing full ZPI–FXa reaction progress curves over the ZPI concentration range of 10 to 900 nM with ∼0.5 nM FXa. Full reaction progress curves were also measured for ZPI–FXa reactions in the presence of PZ equimolar with ZPI, 25 μM lipid, and 5 mM CaCl2, as a function of the ZPI concentration in the range of 10 to 40 nM. Identical reaction mixtures were quenched at varying reaction times with substrate, and the time course of protease inactivation was measured from the decrease in initial rates of substrate hydrolysis. The first-order rate of decrease in protease activity with time was computer fit by a single exponential decay function with a nonzero end point and kobs obtained from the fitted exponential decay constant. Apparent second-order association rate constants (ka,app) were obtained from the slopes of linear plots of kobs versus the ZPI concentration according to the equation, kobs=kd+ka,app × [ZPI]0
(§2) In which kd represents the rate constant for ZPI–FXa complex dissociation and [ZPI]o is the total ZPI concentration. kd was fixed at the experimentally determined value of 10^−4 s^−1 for WT and ZPI mutants as described ([18]).
(§3) Fixed concentrations of FXa (50–100 nM FXa) were reacted with increasing concentrations of ZPI, ranging from a approximately threefold to sevenfold molar excess, in the absence of cofactors or in the presence of either 1 μM H50 or PZ equimolar with ZPI, 25 μM lipid, and 5 mM CaCl2, in kinetics buffer at 25 °C in reaction volumes of 50 μl. After allowing sufficient time to reach a reaction end point, based on measured second-order associate rate constants (∼5–30 min), remaining proteolytic activity was measured by reacting an aliquot (5–20 μl) of the reaction mixtures with 1 ml of 100 μM Spectrozyme fXa (American Diagnostica) containing 50 μg/ml Polybrene and 5 mM EDTA and monitoring the rate of absorbance change at 405 nm. The apparent SI was determined from the fitted abscissa intercept of a linear plot of residual protease activity against the molar ratio of inhibitor to protease ([18]). Because the ZPI–PZ complex dissociates to a small extent over the reaction time, apparent SIs depend on the time of incubation. To correct for such complex dissociation, apparent SIs were multiplied by the factor, exp (−kd × t), where kd is the measured complex dissociation rate constant of 10^−4 s^−1 and t the fixed reaction time. Simulations verified the validity of this correction for small extents of dissociation. Reported SIs are average values of at least two independent measurements at different reaction times.

FXa [2] = molecular target: T1, FXa; assay: PZ-accelerated ZPI–FXa reactions: kinetics and stoichiometry of inhibition; details: for PZ enhancement: ratio of PZ-accelerated to unaccelerated ka,app × SI; for SI / ka,app × SI / ka,app × SI relative to WT: PZ-accelerated; for ka,app: equimolar PZ, 25 μM phospholipid, 5 mM CaCl2, pH 7.4, 25 °C
Description: as §1, §2, §3

FXa [3] = molecular target: T1, FXa; assay: H50 heparin-accelerated ZPI–FXa reactions: kinetics and stoichiometry of inhibition; details: for SI / ka,app × SI / ka,app × SI relative to WT: 1 μM H50; for ka,app: 1 μM H50, 2.5 mM CaCl2, pH 7.4, 25 °C; for H50 rate enhancement: ratio of heparin-accelerated to unaccelerated ka,app × SI
Description: Heparin accelerating effects on the kinetics of ZPI–FXa reactions were evaluated as a function of heparin concentration under pseudo–first-order conditions (i.e., with a large molar excess of inhibitor over protease) by incubating reaction mixtures of 100 μl containing 70 nM ZPI and ∼0.5 nM FXa in the absence or presence of varying levels of H50 ranging from 10^−9 to 10^−4 M in 20 mM Tris buffer (pH 7.4), 0.1 M NaCl, 0.1% PEG 8000, 0.1 mg/ml BSA, and 2.5 mM CaCl2 at 25 °C for reaction times of 2 to 5 min. Reactions were quenched by adding 1 ml of 50 μM Pefafluor FXa substrate (Centerchem, Inc) containing 50 μg/ml polybrene and 5 mM EDTA. The initial linear rate of substrate hydrolysis was monitored at an excitation wavelength of 380 nm and an emission wavelength of 440 nm. The observed pseudo–first-order rate constant for reactions (kobs) was calculated from the equation, kobs=In([vo-v∞]/[vt-v∞])/t
where vt and v∞ are the initial velocities of protease hydrolysis of the substrate after reaction with ZPI for the fixed reaction time and after reaching the reaction end point, respectively, vo is the velocity measured in control reactions without ZPI, and t is the fixed reaction time. The dependence of kobs on heparin concentration was computer fit by nonlinear least squares analysis by the ternary complex bridging model equation ([10]).
as §1, §2
as §3, with “Simulations verified the validity of this correction for small extents of dissociation. Reported SIs are average values of at least two independent measurements at different reaction times.” left out

T1 sequence (P00742 235-488 limits assumed): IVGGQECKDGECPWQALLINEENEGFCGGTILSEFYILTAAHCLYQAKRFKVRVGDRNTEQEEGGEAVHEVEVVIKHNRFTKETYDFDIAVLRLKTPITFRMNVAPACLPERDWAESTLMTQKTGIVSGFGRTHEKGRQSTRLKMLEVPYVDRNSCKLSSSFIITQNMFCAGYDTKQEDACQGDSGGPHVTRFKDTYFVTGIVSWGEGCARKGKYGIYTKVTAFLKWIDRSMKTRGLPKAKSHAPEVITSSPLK
T1 sequence (P00742 41-179 limits assumed): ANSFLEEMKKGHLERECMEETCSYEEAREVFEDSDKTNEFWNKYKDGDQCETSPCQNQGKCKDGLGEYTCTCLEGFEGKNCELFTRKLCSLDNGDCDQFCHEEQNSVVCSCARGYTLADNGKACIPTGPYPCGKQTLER

SI (FXa [1]): 2.9 ± 0.2 moles ZPI/mole FXa | ka,app × SI (FXa [1]): 1.7 ± 0.1 × 10^4 M^−1 s^−1 | ka,app × SI relative to WT (FXa [1]): (1.1) | ka,app (FXa [1]): 5.8 ± 0.1 × 10^3 M^−1 s^−1 | SI (FXa [2]): 2.7 ± 0.1 moles ZPI/mole FXa | ka,app × SI (FXa [2]): 2.6 ± 0.1 × 10^7 M^−1 s^−1 | ka,app × SI relative to WT (FXa [2]): (0.59) | ka,app (FXa [2]): 9.5 ± 0.1 × 10^6 M^−1 s^−1 | PZ enhancement (FXa [2]): 1524 | SI (FXa [3]): 2.2 ± 0.3 moles ZPI/mole FXa | ka,app × SI (FXa [3]): 5.4 ± 0.9 × 10^5 M^−1 s^−1 | ka,app × SI relative to WT (FXa [3]): (0.45) | ka,app (FXa [3]): 2.4 ± 0.1 × 10^5 M^−1 s^−1 | H50 rate enhancement (FXa [3]): ~32 fold
B3: K308A: ZPI helix H site mutant (protein, UniProt Q9UK55 22-444, looked up, variant K308A)
Protein Z-dependent protease …: LAPSPQSPETPAPQNQTSRVVQAPKEEEEDEQEASEEKASEEEKAWLMASRQQLAKETSNFGFSLLRKISMRHDGNMVFSPFGMSLAMTGLMLGATGPTETQIKRGLHLQALKPTKPGLLPSLFKGLRETLSRNLELGLTQGSFAFIHKDFDVKETFFNLSKRYFDTECVPMNFRNASQAKRLMNHYINKETRGKIPKLFDEINPETKLILVDYILFKGKWLTPFDPVFTEVDTFHLDKYKTIKVPMMYGAGKFASTFDKNFRCHVLKLPYQGNATMLVVLMEKMGDHLALEDYLTTDLVETWLRNMATRNMEVFFPKFKLDQKYEMHELLRQMGIRRIFSPFADLSELSATGRNLQVSRVLQRTVIEVDERGTEAVAGILSEITAYSMPPVIKVDRPFHFMIYEETSGMLLFLGRVVNPTLL

SI (FXa [1]): 2.8 ± 0.4 moles ZPI/mole FXa | ka,app × SI (FXa [1]): 1.6 ± 0.3 × 10^4 M^−1 s^−1 | ka,app × SI relative to WT (FXa [1]): (1) | ka,app (FXa [1]): 5.6 ± 0.3 × 10^3 M^−1 s^−1 | SI (FXa [2]): 4.0 ± 0.3 moles ZPI/mole FXa | ka,app × SI (FXa [2]): 4.4 ± 0.3 × 10^7 M^−1 s^−1 | ka,app × SI relative to WT (FXa [2]): (1.0) | ka,app (FXa [2]): 10.9 ± 0.1 × 10^6 M^−1 s^−1 | PZ enhancement (FXa [2]): 2750 | SI (FXa [3]): 2.4 ± 0.1 moles ZPI/mole FXa | ka,app × SI (FXa [3]): 1.2 ± 0.2 × 10^6 M^−1 s^−1 | ka,app × SI relative to WT (FXa [3]): (1) | ka,app (FXa [3]): 5.1 ± 0.4 × 10^5 M^−1 s^−1 | H50 rate enhancement (FXa [3]): ~75 fold
B6: WT: recombinant wild-type protein Z-dependent protease inhibitor (serpin A10) expressed in Escherichia coli (protein, UniProt Q9UK55 22-444, looked up)
Protein Z-dependent protease …: B3 Protein Z-dependent protease … with A308K

SI (FXa [1]): 2.7 ± 0.2 moles ZPI/mole FXa | ka,app × SI (FXa [1]): 1.0 ± 0.2 × 10^4 M^−1 s^−1 | ka,app × SI relative to WT (FXa [1]): (0.62) | ka,app (FXa [1]): 3.8 ± 0.3 × 10^3 M^−1 s^−1 | SI (FXa [2]): 2.9 ± 0.2 moles ZPI/mole FXa | ka,app × SI (FXa [2]): 2.7 ± 0.6 × 10^7 M^−1 s^−1 | ka,app × SI relative to WT (FXa [2]): (0.61) | ka,app (FXa [2]): 9.4 ± 1.4 × 10^6 M^−1 s^−1 | PZ enhancement (FXa [2]): 2700 | SI (FXa [3]): 1.9 ± 0.2 moles ZPI/mole FXa | ka,app × SI (FXa [3]): 3.5 ± 0.5 × 10^5 M^−1 s^−1 | ka,app × SI relative to WT (FXa [3]): (0.29) | ka,app (FXa [3]): 1.8 ± 0.1 × 10^5 M^−1 s^−1 | H50 rate enhancement (FXa [3]): ~35 fold
B7: R310A: ZPI helix H site mutant (protein, UniProt Q9UK55 22-444, looked up, variant R310A)
Protein Z-dependent protease …: B3 Protein Z-dependent protease … with A308K, R310A

Continued, molecule first:

B1: D293A: ZPI mutant in the PZ-binding site hot spot residue (protein, UniProt Q9UK55 22-444, looked up, variant D293A)
Protein Z-dependent protease …: B3 Protein Z-dependent protease … with D293A, A308K
SI (FXa [1]): 2.6 ± 0.1 moles ZPI/mole FXa | ka,app × SI (FXa [1]): 1.1 ± 0.1 × 10^4 M^−1 s^−1 | ka,app × SI relative to WT (FXa [1]): (0.69) | ka,app (FXa [1]): 4.1 ± 0.2 × 10^3 M^−1 s^−1 | PZ enhancement (FXa [2]): greatly abrogated the acceleration | SI (FXa [3]): 1.7 ± 0.1 moles ZPI/mole FXa | ka,app × SI (FXa [3]): 8.5 ± 0.6 × 10^5 M^−1 s^−1 | ka,app × SI relative to WT (FXa [3]): (0.71) | ka,app (FXa [3]): 5.0 ± 0.2 × 10^5 M^−1 s^−1

B2: R305A: ZPI helix H site mutant (protein, UniProt Q9UK55 22-444, looked up, variant R305A)
Protein Z-dependent protease …: B3 Protein Z-dependent protease … with R305A, A308K
SI (FXa [1]): 2.4 ± 0.2 moles ZPI/mole FXa | ka,app × SI (FXa [1]): 1.8 ± 0.2 × 10^4 M^−1 s^−1 | ka,app × SI relative to WT (FXa [1]): (1.1) | ka,app (FXa [1]): 7.3 ± 0.4 × 10^3 M^−1 s^−1 | SI (FXa [2]): 3.3 ± 0.1 moles ZPI/mole FXa | ka,app × SI (FXa [2]): 3.2 ± 0.4 × 10^7 M^−1 s^−1 | ka,app × SI relative to WT (FXa [2]): (0.73) | ka,app (FXa [2]): 9.8 ± 1.0 × 10^6 M^−1 s^−1 | PZ enhancement (FXa [2]): 1778 | SI (FXa [3]): 1.8 ± 0.1 moles ZPI/mole FXa | ka,app × SI (FXa [3]): 5.3 ± 0.9 × 10^5 M^−1 s^−1 | ka,app × SI relative to WT (FXa [3]): (0.44) | ka,app (FXa [3]): 2.9 ± 0.3 × 10^5 M^−1 s^−1 | H50 rate enhancement (FXa [3]): ~29 fold

B4: K260A/R263A: ZPI helix H site double mutant (protein, UniProt Q9UK55 22-444, looked up, variant K260A R263A)
Protein Z-dependent protease …: B3 Protein Z-dependent protease … with K260A, R263A, A308K
SI (FXa [1]): 2.4 ± 0.5 moles ZPI/mole FXa | ka,app × SI (FXa [1]): 1.3 ± 0.4 × 10^4 M^−1 s^−1 | ka,app × SI relative to WT (FXa [1]): (0.81) | ka,app (FXa [1]): 5.4 ± 0.3 × 10^3 M^−1 s^−1 | SI (FXa [2]): 2.6 ± 0.3 moles ZPI/mole FXa | ka,app × SI (FXa [2]): 1.5 ± 0.2 × 10^7 M^−1 s^−1 | ka,app × SI relative to WT (FXa [2]): (0.34) | ka,app (FXa [2]): 5.6 ± 0.2 × 10^6 M^−1 s^−1 | PZ enhancement (FXa [2]): 1153 | SI (FXa [3]): 2.5 ± 0.4 moles ZPI/mole FXa | ka,app × SI (FXa [3]): 2.9 ± 0.8 × 10^5 M^−1 s^−1 | ka,app × SI relative to WT (FXa [3]): (0.24) | ka,app (FXa [3]): 1.2 ± 0.1 × 10^5 M^−1 s^−1 | H50 rate enhancement (FXa [3]): ~22 fold

B5: K260A/R263A/K308A/R310A: ZPI helix H site quadruple mutant (protein, UniProt Q9UK55 22-444, looked up, variant K260A R263A K308A R310A)
Protein Z-dependent protease …: B3 Protein Z-dependent protease … with K260A, R263A, R310A
SI (FXa [1]): 4.0 ± 0.8 moles ZPI/mole FXa | ka,app × SI (FXa [1]): 4.5 ± 1.8 × 10^3 M^−1 s^−1 | ka,app × SI relative to WT (FXa [1]): (0.28) | ka,app (FXa [1]): 1.1 ± 0.2 × 10^3 M^−1 s^−1 | SI (FXa [2]): 6.6 ± 0.4 moles ZPI/mole FXa | ka,app × SI (FXa [2]): 2.7 ± 0.4 × 10^7 M^−1 s^−1 | ka,app × SI relative to WT (FXa [2]): (0.61) | ka,app (FXa [2]): 4.1 ± 0.3 × 10^6 M^−1 s^−1 | PZ enhancement (FXa [2]): 6000 | SI (FXa [3]): 4.1 ± 0.6 moles ZPI/mole FXa | ka,app × SI (FXa [3]): 7.6 ± 1.3 × 10^4 M^−1 s^−1 | ka,app × SI relative to WT (FXa [3]): (0.06) | ka,app (FXa [3]): 1.8 ± 0.1 × 10^4 M^−1 s^−1 | H50 rate enhancement (FXa [3]): ~17 fold
